A short description of data set [1]: Ex vivo prodrug stability in normal mouse plasma (LC/MS/MS). As to conditions: for stability in plasma and/or liver: alternative endcaps on MT-MMP prodrug; for stability in plasma: normal mouse plasma ex vivo.
Excerpt: Prodrug cleavage and metabolism were detected using LC/MS/MS. • a.
Data set [2] in a line: Ex vivo prodrug metabolism in HT1080 tumour homogenate (LC/MS/MS). As to conditions: for half-life: human, tissue homogenate, HT1080 tumour homogenate, mean of four independent experiments, read-out: Tumour t½. The data set is classed as in vitro ADME, human. The source says:
(§1) Liver was representative of all normal tissues analysed. (FIG. 5) • d.
(§2) Half lives are the mean taken from four independent experiments. Liver represent murine liver homogenate and tumour represents HT1080

Data set [3] is described as follows: Ex vivo prodrug stability in normal mouse liver homogenate (LC/MS/MS). As to conditions: for half-life: mouse, tissue homogenate, murine liver homogenate, mean of four independent experiments, read-out: Liver t½; for stability in liver homogenate: normal mouse liver homogenate ex vivo. The data set is classed as in vitro ADME.
Excerpt: as §1, §2

Data set [4] is described as follows: Tissue levels of prodrug and VDA2 after intraperitoneal dosing of HT1080 tumour-bearing mice. It counts as in vivo. As to conditions: for VDA2 levels in tumour following prodrug administration: HT1080 tumour; for prodrug accumulation in tissues / site of highest prodrug levels: HT1080 tumour-bearing mice.
Excerpt: as §1

Data set [5] is described as follows: Off-target toxicity by mouse body weight in antitumour study. The data set is classed as in vivo, Balb/C mice. As for the experimental part: ICT-2552 and ICT-2588 (‘prodrug’) were administered as a single dose via the intraperitoneal route to Balb/C mice bearing subcutaneous HT1080 xenografts. Each of the nine dosing groups comprised 8 mice. The anti-tumour effects of the compounds were assessed by determination of tumour volume and the existence of off-target toxicity was ascertained via monitoring mouse body weight.
The dosing groups evaluated ICT-2588 (prodrug) relative to the molar equivalent dose of ICT-2552 (warhead), and were: • 10% DMSO/oil (solvent control) • ICT-2588 at 37.5 mg/kg; 50.0 mg/kg; 62.5 mg/kg; 75.0 mg/kg • ICT-2552 at 7.5 mg/kg; 10.0 mg/kg; 12.5 mg/kg; 15 mg/kg Results
The weight of all mice was within the tolerated loss of 15% of bodyweight, therefore the compounds are not classified as toxic to the whole body system.

Non-standard residues stand in square brackets, D forms with d. Residues, ends and D or L forms follow the SMILES beside them. No end group written: not given here. *: point of attachment. NH(Colchicin-10-yl) = COc1cc2c(c(OC)c1OC)-c1ccc(N*)c(=O)cc1[C@@H](NC(C)=O)CC2; FITC = O=C1OC2(c3ccc(O)cc3Oc3cc(O)ccc32)c2ccc(NC(=S)*)cc21; hPhe = N[C@@H](CCc1ccccc1)C(=O)O; Cit = NC(=O)NCCC[C@H](N)C(=O)O; βAla = NCCC(=O)O

For the compound `COc1cc2c(c(OC)c1OC)-c1ccc(NC(=O)[C@H](Cc3ccc(O)cc3)NC(=O)[C@H](CC(C)C)NC(=O)[C@H](Cc3ccc(O)cc3)NC(=O)[C@H](CCc3ccccc3)NC(=O)CNC(=O)[C@H](CCCNC(N)=O)NC(=O)[C@H](CO)NC(=O)[C@H](CCCNC(=N)N)NC(=O)[C@@H](CO)NC(=O)[C@@H](CO)NC(=O)[C@H](N)CO)c(=O)cc1[C@@H](NC(C)=O)CC2` [3×D-Serine] (H-[dS][dS][dS]RS[Cit]G[hPhe]YLY-{NH(Colchicin-10-yl)}), the “stability in plasma and/or liver” value in data set [1] is listed as “insufficiently stable”.
With `COc1cc2c(c(OC)c1OC)-c1ccc(NC(=O)[C@H](Cc3ccc(O)cc3)NC(=O)[C@H](CC(C)C)NC(=O)[C@@H]3CCCN3C(=O)[C@H](CCc3ccccc3)NC(=O)CNC(=O)[C@H](CCCNC(N)=O)NC(=O)[C@H](CO)NC(=O)[C@H](CCCNC(=N)N)NC(=O)CCNC(=S)Nc3ccc4c(c3)C(=O)OC43c4ccc(O)cc4Oc4cc(O)ccc43)c(=O)cc1[C@@H](NC(C)=O)CC2` [ICT3097] ({FITC-βAla}-RS[Cit]G[hPhe]PLY-{NH(Colchicin-10-yl)}), the half-life in data set [2] was determined as 0.4 h; in data set [3], 1.83 h.
Take `COc1cc2c(c(OC)c1OC)-c1ccc(NC(=O)[C@H](Cc3ccc(O)cc3)NC(=O)[C@H](CC(C)C)NC(=O)[C@H](Cc3ccc(O)cc3)NC(=O)[C@H](CCc3ccccc3)NC(=O)CNC(=O)[C@H](CCCNC(N)=O)NC(=O)[C@H](CO)NC(=O)[C@H](CCCNC(=N)N)NC(=O)CCNC(=S)Nc3ccc4c(c3)C(=O)OC43c4ccc(O)cc4Oc4cc(O)ccc43)c(=O)cc1[C@@H](NC(C)=O)CC2` [ICT-2588] ({FITC-βAla}-RS[Cit]G[hPhe]YLY-{NH(Colchicin-10-yl)}): in data set [2] (HT1080 (high MT-MMP) relative to MCF7 (low MT-MMP) homogenate), the “metabolism in tumour homogenate, high versus low MT-MMP” value is listed as “metabolised rapidly”. In addition, the half-life in data set [2] is 0.55 h. In data set [4], the “VDA2 levels in tumour following prodrug administration” value is “High concentrations”; the “prodrug accumulation in tissues” value is “accumulated and was detected in all tissues analysed”; the “site of highest prodrug levels” value is given as “Highest prodrug-2 levels were observed in the tumour”. Also, the “VDA2 in plasma following prodrug administration” value in data set [4] (plasma) is “undetectable”. For the same compound, in data set [4] (tumour vs normal tissues), the “VDA2 level in tumour relative to normal tissues” value stood at 10 times higher. Besides, the “levels of prodrug-2 and VDA2 in tumour 48 hours post administration” value in data set [4] (tumour, 48 hours) is reported as “still detectable”. Besides, the stability in plasma result in data set [1] was “remained intact”. In addition, in data set [5] (ICT-2588 37.5 mg/kg), the “Maximum % weight loss” value is 3 (3) % and the “day of maximum weight loss” value is given as 3 (3) day. In addition, in data set [5] (ICT-2588 50.0 mg/kg), the “Maximum % weight loss” value was 5% and the “day of maximum weight loss” value was 3 days. Further, in data set [5] (ICT-2588 62.5 mg/kg), the “Maximum % weight loss” value is reported as 4% and the “day of maximum weight loss” value stood at 3 days. Further, in data set [5] (ICT-2588 75.0 mg/kg), the “Maximum % weight loss” value was determined as 5% and the “day of maximum weight loss” value was 3 days. For the same compound, in data set [3], the half-life stood at 2.48 h and the “stability in liver homogenate” value is listed as “remained stable”.
As for `COc1cc2c(c(OC)c1OC)-c1ccc(NC(=O)[C@H](Cc3ccc(O)cc3)NC(=O)[C@H](CC(C)C)NC(=O)[C@H](Cc3ccc(O)cc3)NC(=O)[C@H](CCc3ccccc3)NC(=O)CNC(=O)[C@H](CCCNC(N)=O)NC(=O)[C@@H]3CCCN3C(=O)[C@H](CCC(=O)O)NC(=O)CCNC(=S)Nc3ccc4c(c3)C(=O)OC43c4ccc(O)cc4Oc4cc(O)ccc43)c(=O)cc1[C@@H](NC(C)=O)CC2` [Prodrug-1] ({FITC-βAla}-EP[Cit]G[hPhe]YLY-{NH(Colchicin-10-yl)}), the “metabolism in tumour homogenate” value in data set [2] (HT1080 xenograft homogenate ex vivo) is given as “metabolised”. Also, the “prodrug level after 24 hours post-dosing” value in data set [4] (24 hours) is “not detectable”. Moreover, in data set [4], the “VDA2 levels in tumour following prodrug administration” value is reported as “detected at high levels”; the “prodrug accumulation in tissues” value is “accumulated and was detected in all tissues analysed”; the “site of highest prodrug levels” value was “Highest prodrug-1 levels were observed in the tumour”. The “VDA2 levels in normal tissues following prodrug administration” value in data set [4] (normal tissues) is “detectable at low levels”. Moreover, the “VDA2 in normal tissues after 24 hours post-dosing” value in data set [4] (normal tissues, 24 hours) is “undetectable”. Besides, the “VDA2 in tumour after 24 hours post-dosing” value in data set [4] (tumour, 24 hours) is recorded as “still detectable at high levels”. Moreover, in data set [1], the stability in plasma entry is listed as “stable”. Also, in data set [3], the “stability in liver homogenate” value is “stable”.
Take “Quinic acid+2×D-Serine: conjugate based on MT-MMP prodrug (SEQ ID NO: 4) with quinic acid+2×D-Serine endcap (RS[Cit]G[hPhe]YLY; not fully specified (N-terminus); also: quinic acid + 2×D-Ser endcap, end not given here)”: the “stability in plasma and/or liver” value in data set [1] was “insufficiently stable”.

The record behind these values is US10912839B2, “Methods of treating cancer using compounds containing a vascular disrupting agent” (priority 2008, dated 2021).
